Our source for the 抑制作用 (%) values is patent CN113150161A.

The assay concerns the target 小菜蛾钙黏蛋白毒素结合区(PxCad-TBR) (小菜蛾 (Plutella xylostella)). The assay can be described thus: competitive ELISA on coated PxCad-TBR, 500 μg/mL Cry2Aa, competitor 2G4 (3.75 μg/mL, molar ratio 294:1). On the technique in general: In an ELISA, binding on a coated surface is turned into a signal by an enzyme label.

As to “活化Cry2Aa毒素(分子量68 kDa) (from UniProt P0A377 50-633)”, the 抑制作用 (%) was 44%.
